Experiment: soluble on expression in E. coli; label from the status in PepcDB or PDB records

Row | Sequence | soluble on expression in E. coli
1 | MKKVIIAGNGPSLKEIDYSRLPNDFDVFRCNQFYFEDKYYLGKKCKAVFYNPSLFFEQYYTLKHLIQNQEYETELIMCSNYNQAHLENENFVKTFYDYFPDAHLGYDFFKQLKDFNAYFKFHEIQFNQRITSGVYMCAVAIALGYKEIYLSGIDFYQNGSSYAFDTKQKNLLKLAPNFKNDNSHYIGHSKNTDIKALEFLEKTYKIKLYCLCPNSLLANFIGLAPNLNSNFIIQEKNNYTKDILIPSSEAYGKFSKNINFKKIKIKENIYYKLIKDLLRLPSDIKHYFKGK | soluble
2 | MGSDKIHHHHHHMNYFSYLSLEERQNFFYKEPLSFSKNIEKEQLAYALGATLYTPGTKETIAEDIIRKKHVEATSIIFCLEDSISDKEVKFAEQNIVFQIQQISNLVSDNILNQADIPLLFIRVRQPSQMRTIVTELGSAVHCLCGFVFPKFTPVNGKSYIDQLAYINKLYSLSLYGMPILESPEIMYRETRVKSLLQIKDLLDSYRDYILNVRIGATDFSSIFGIRRNKHTPIYHITVVRDCISDIINIFSRATNGYVISGCVWEYFSNDYEEGLIQEVSLDHANGLIGKTVIHPSHIKVVQAMHIVTMEDYLDARSILQHANTYNGVLKSSFANKMNEVKPHYNWARKTILKSNIYGVLHENKQFTDLLITNAKQHV | not soluble
3 | MSLNNRSETMKYKRIVFKVGTSSLTNEDGSLSRSKVKDITQQLAMLHEAGHELILVSSGAIAAGFGALGFKKRPTKIADKQASAAVGQGLLLEEYTTNLLLRQIVSAQILLTQDDFVDKRRYKNAHQALSVLLNRGAIPIINENDSVVIDELKVGDNDTLSAQVAAMVQADLLVFLTDVDGLYTGNPNSDPRAKRLERIETINREIIDMAGGAGSSNGTGGMLTKIKAATIATESGVPVYICSSLKSDSMIEAAEETEDGSYFVAQEKGLRTQKQWLAFYAQSQGSIWVDKGAAEALSQHGKSLLLSGIVEAEGVFSYGDIVTVFDKESGKSLGKGRVQFGASALEDILRSQKAKGVLIYRDDWISITPEIQLLFTEFEGHHHHHH | soluble
4 | MATKPQDANTTSREAITSKADSPPRPTALIFDSGVGGLSVYQEIRQLLPDLHYIYAFDNVAFPYGEKSGEFIVERVLEIVTAVQQRHPLAIVVIACNTASTVSLPALRERFAFPVVGVVPAIKPAVRLTRNGVVGLLATRATVHASYTLDLIARFATDCKIELLGSSELVEVAETKLHGGVVPLEVLKKILHPWLSMREPPDTIVLGCTHFPLLTEELAQVLPEGTRMVDSGAAIARRTAWLISSQENVISSQDENIAYCMALDEDTDALLPVLQSYGFPKLQKLPI | not soluble
5 | MTMVQPSGGGASGRGSSSGLADVIDTILDKGLVIDAFVRVSVVGIEILTIDARIVVASVDTYLRFAEATNRLDLTQTGGKGLPEVLQDTTQGVSKSKTKGIAQGALETAGEKLRDIIGEPEEEEEPAPRRRRRREEE | not soluble
6 | MNDGDVSRQIQQMVRFIRQEAEEKANEISVSAEEEFNIEKLQLVEAEKKKIRQDYEKKEKQADVRKKIDYSMQLNASRIKVLQAQDDIVNAMKDQAAKDLLNVSRDEYAYKQLLKDLIVQCLLRLKEPSVLLRCREEDLGLVEAVLDDAKEEYAGKAKVHAPEVAVDTKIFLPPPPKSNDPHGLHCSGGVVLASRDGKIVCENTLDARLDVAFRMKLPVIRKSLFGQVTA | soluble
7 | MSLVPRIAVLGCGHWGGNHIRTLQSLRALAAVSDVDSDRAASFASLYGVDAVAPDDLFTRRDIDALVLALPPQFHTENVLRAVKNGKDVLVEKPIALDVVDAECQVQAAREYGRILMVGHILRFHPAFEKISELVENGELGDVCYIYSHRLGFGKFHTQSDALWDLAPHDLSMILALTGCEPSEVRGEGAAVIDQCSDFAHIHMAFPNGIRSHLFASRLSPYRERRLMVVGTKAMLVFDDMEPWSRKVAFHPFAVWKENQEWAFSTDELSYINIYEDLPLTCELKHFLHCIETRQSPRTNGDDALAILRILTAAGVNYQKEGHHHHHH | soluble
8 | MAHHHHHHMENKENLRNQQEFNQLCRILRLVEGDPGQVVKEPPNLGILIEVLQKMVKATFVKESSYQEAVDAREKWKSTDSTVETKNIMDKQRADDLVRYKITHEKLKKLLAKAKMLVSRIKEERYLAYVSRNAALEKMAKVVYGSSAEKMFRNETEFEKFLANSQGTIVGKTAKETCGMSNDKMKNVSFAGYSLVGDFFCLCVGENNNATLCDKSFSGPREEHKWTKVMFEDKLVDFAAGWFKIRGLCYVNATSGIKDVVTPENISTEIVAFNKMLGRQRDDVQIYRREAESYRQYILGRVEQVGFTDSAICTGEHQHMCVNYAQCLVSNKGIPWQLKLMEAEEDLEDVEKHNMEVHVLIGRLDKLIEKIKKAAEQLSQEMEGIDVAVEKVQLLEEEIEENETTGKSEATAGEFNDNAQPEEGSLDKCEYWGMFSILFGVVAFSLV | not soluble
